# Results reported in the supplement of paper PMC12764529.
# ± gives the half width of the 95% confidence interval.
# Assay: folding stability dG unfold from trypsin proteolysis; higher = more stable
# Method in brief: (§1)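 How resistant each design was to proteolysis was captured as K50, inferred by Bayesian fitting of sequencing counts. Unfolding free energy was then derived relative to a sequence-predicted unfolded-state K50 and a shared folded-state K50, per protease or combined. Digestion used trypsin and chymotrypsin at 11 threefold-diluted concentrations plus a no-protease condition, on mini-proteins under 80 residues without cysteine in a PA-tagged cDNA display construct. Designs were kept only when AlphaFold2 dimer inter-PAE was above 15.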
row,Sequence,folding stability dG unfold [kcal/mol]
1,SAGGDEDDWRPIEIPLYIRNPENGHLFQITPMKIWVPDNLTIEMEMEMFDPDDGKVEKHKMTFTIPAKSAGG [r13_206_TrROS],1.2 ± 0.088
2,SAGGSASPAVSSEEEVEALVEELRKKGYEVLSVERTEIPGEDVTDYTIPIRDPSNGKLSTLTLTAGSAGGSA [r15_123_JUSTAS],0.508 ± 0.037
3,SAGGSSMYKTTTTPLSTFPVRDENGNFLEETKFEKTTVTYPDGSTVTVLKIEVGGKTFTLEVTPTPSAGGSA [r2_158_JUSTAS],0.0145 ± 0.075
4,SAGGSADPDDKEQKIKVEIETYRLEDNGMEVTRIELEGHGMPIYIARFPDGRMFIFTANGELEQIPSAGGSA [r15_617_TrROS],1.97 ± 0.14
5,SAGGSAGGMEEIVLPIPEEVAKELIASGTVTKTQTEGNRTILTKTPPSGGSTKITVVLPPSYPSSAGGSAGG [r6_654_JUSTAS],1.2 ± 0.095
6,SAGGSAGGSAGGMTIVIVVPAENLTPEEIAELLREAGYEVTVERREDGYLVVTVRLPEPSAGGSAGGSAGGS [r10_1254_TrROS_Hall],3.5 ± 0.083
7,SAGELAEKLAEELRKLFPNAEVEVEVVEVKEDYVVVKIRLRVVDEETGEEKTVEVELTLVLKPGEILPSAGG [r19_8_TrROS_Hall],3.79 ± 0.14
8,SAGGMTKTVTVTIEIDVPPGVTVDELIEKLKELAEKLGLTVKVTSVTVEEVDGKLVVTVEVEIEPPEPSAGG [r13_351_TrROS_Hall],2.58 ± 0.25
9,SAGSSTPGSEVVRVTSEVSEGESNRTVSYTTYVFEPGGPALRPLSTSTTTVPAAPGVPEGGTKTISLPGSAG [r5_861_JUSTAS],-0.419 ± 0.064

# Assay: folding stability dG unfold (combined trypsin and chymotrypsin); higher = more stable
# Method in brief: as §1
row,Sequence,folding stability dG unfold [kcal/mol]
1,SAGKPRPVEIDFPMPPGFPNMPPEEMANMIARELDENGLKIEPKNMNPGEPYVRYTVEVNGKPILEITFSAG [r5_80_TrROS],1.14 ± 0.12
2,SAGGSAGGSAGVRDPDNGEPMPPGDWVIRHRDNEKPHHFLIPPNNAEEFAEDNGIEIHKVSAGGSAGGSAGG [r17_109_TrROS],1.32 ± 0.35
3,SAGGSAGGSAGGWDVEIEPFPDGFIFITAEGPNGRKLVIVVMVVPEGKLMYMIVPLDDLSAGGSAGGSAGGS [r10_140_TrROS],3.34 ± 0.19
4,ETIYLSSSNPEEVIKALKEAASKGKTVVVEANPEFFKEFIAQGFKVEKILKIEPIPGGDGYRAEIKISPGGS [r1_173_TrMRF],1.97 ± 0.14
5,FKFKITELSFNPEWGYIHFNVKVEGPDGQPQTFPIMIRIRIPPPPPPPPPPMRADPDGKVRNPDDGKEHDAS [r1_270_TrROS],4.26 ± 0.63
6,SAGGSAGGSAGGMEIREVEVTFVPPDGTTTTRKVLATSEEEAKAILEEELPPDWEIILRSAGGSAGGSAGGS [r10_145_JUSTAS],0.55 ± 0.082
7,SAGGSAGGMEEIEIEINGKKAKIYRLPGDEDLFLIEVDGELYLVKVKKKDGKWEIVEVKKLDELSAGGSAGG [r6_915_TrROS_Hall],4.13 ± 0.16
8,SAGGSAGGSAGKIKIKNEDGSEYEVKKIEITIKNENGEKKKIKLEIELPKAKEVKIEKKKSAGGSAGGSAGG [r11_804_TrROS_Hall],-0.13 ± 0.29
9,SAGGDEDDWRPIEIPLYIRNPENGHLFQITPMKIWVPDNLTIEMEMEMFDPDDGKVEKHKMTFTIPAKSAGG [r13_206_TrROS],1.64 ± 0.22
10,SAGGSASPAVSSEEEVEALVEELRKKGYEVLSVERTEIPGEDVTDYTIPIRDPSNGKLSTLTLTAGSAGGSA [r15_123_JUSTAS],0.585 ± 0.12
11,SAGGSSMYKTTTTPLSTFPVRDENGNFLEETKFEKTTVTYPDGSTVTVLKIEVGGKTFTLEVTPTPSAGGSA [r2_158_JUSTAS],0.565 ± 0.18
12,SAGGSADPDDKEQKIKVEIETYRLEDNGMEVTRIELEGHGMPIYIARFPDGRMFIFTANGELEQIPSAGGSA [r15_617_TrROS],2.41 ± 0.16
13,SAGGSAGGMEEIVLPIPEEVAKELIASGTVTKTQTEGNRTILTKTPPSGGSTKITVVLPPSYPSSAGGSAGG [r6_654_JUSTAS],1.35 ± 0.17
14,SAGGSAGGSAGGMTIVIVVPAENLTPEEIAELLREAGYEVTVERREDGYLVVTVRLPEPSAGGSAGGSAGGS [r10_1254_TrROS_Hall],3.43 ± 0.048
15,SAGELAEKLAEELRKLFPNAEVEVEVVEVKEDYVVVKIRLRVVDEETGEEKTVEVELTLVLKPGEILPSAGG [r19_8_TrROS_Hall],4.29 ± 0.3
16,SAGGMTKTVTVTIEIDVPPGVTVDELIEKLKELAEKLGLTVKVTSVTVEEVDGKLVVTVEVEIEPPEPSAGG [r13_351_TrROS_Hall],2.5 ± 0.31
17,SAGSSTPGSEVVRVTSEVSEGESNRTVSYTTYVFEPGGPALRPLSTSTTTVPAAPGVPEGGTKTISLPGSAG [r5_861_JUSTAS],-0.534 ± 0.11
